Blank lines part the entries; values can stand above or below the binder they belong to. Bridge positions count the residues as written; N and C are the ends. Square brackets hold non-standard residues; d marks the D form. Primed or numbered codes have the meaning given here. Ends that are not written are not given here. hArg = N=C(N)NCCCC[C@H](N)C(=O)O; Hyp′ = 3-hydroxyproline; Ahp = NCCCCCCC(=O)O; Ahx = NCCCCCC(=O)O
Tests used:
[1] = biological target: T1, His-tagged PCSK9Δhelix (human, UniProt Q8NBP7 31-152; Q8NBP7 168-692); assay: TR-FRET competition (PCSK9Δhelix/Ab20 assay); competitor Ab20
T1 construct: Human PCSK9 M1-Q692 with an engineered TEV site, cut by TEV protease; new N-terminus of the catalytic domain is S-A168; also called His-PCSK9Δhelix; not shown: His tag
T1 sequence (Q8NBP7 31-152, stated change not applied, chain 1 of 2): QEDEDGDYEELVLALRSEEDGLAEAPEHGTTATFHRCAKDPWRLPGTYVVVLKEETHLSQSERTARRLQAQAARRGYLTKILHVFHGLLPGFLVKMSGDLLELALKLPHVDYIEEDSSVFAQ
T1 sequence (Q8NBP7 other isoform, or with tags, fused parts or gaps mutant, chain 2 of 2): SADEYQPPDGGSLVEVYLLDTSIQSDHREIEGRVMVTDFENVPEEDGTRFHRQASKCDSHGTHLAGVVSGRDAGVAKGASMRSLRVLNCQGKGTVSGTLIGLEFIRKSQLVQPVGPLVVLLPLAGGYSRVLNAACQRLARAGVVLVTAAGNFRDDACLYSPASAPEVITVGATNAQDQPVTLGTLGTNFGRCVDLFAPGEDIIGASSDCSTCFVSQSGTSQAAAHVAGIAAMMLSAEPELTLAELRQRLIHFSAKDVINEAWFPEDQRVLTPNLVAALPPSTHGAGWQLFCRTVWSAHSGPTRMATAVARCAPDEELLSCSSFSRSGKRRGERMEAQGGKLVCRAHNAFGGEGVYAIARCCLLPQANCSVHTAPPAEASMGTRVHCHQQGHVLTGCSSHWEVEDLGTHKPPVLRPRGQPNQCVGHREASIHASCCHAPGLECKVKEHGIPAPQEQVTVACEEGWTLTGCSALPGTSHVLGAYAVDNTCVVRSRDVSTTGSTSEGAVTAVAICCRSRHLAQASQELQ

[2] = biological target: T2, His-tagged, full-length PCSK9 (human, UniProt Q8NBP7 31-692); assay: TR-FRET competition (PCSK9/EGF(A) assay); competitor EGF(A)-Fc;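 also: proximity signal from anti-His APC on PCSK9 paired with anti-Fc europium on the Fc ligand, read as normalized TR-FRET ratio across compound dilutions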
T2 construct: secreted PCSK9 is autocatalytically cleaved into prodomain and catalytic domain + CRD (from S153), which stay associated; also called His-PCSK9; proprotein convertase subtilisin/kexin type 9; not shown: His tag
T2 sequence (Q8NBP7 31-692 limits assumed): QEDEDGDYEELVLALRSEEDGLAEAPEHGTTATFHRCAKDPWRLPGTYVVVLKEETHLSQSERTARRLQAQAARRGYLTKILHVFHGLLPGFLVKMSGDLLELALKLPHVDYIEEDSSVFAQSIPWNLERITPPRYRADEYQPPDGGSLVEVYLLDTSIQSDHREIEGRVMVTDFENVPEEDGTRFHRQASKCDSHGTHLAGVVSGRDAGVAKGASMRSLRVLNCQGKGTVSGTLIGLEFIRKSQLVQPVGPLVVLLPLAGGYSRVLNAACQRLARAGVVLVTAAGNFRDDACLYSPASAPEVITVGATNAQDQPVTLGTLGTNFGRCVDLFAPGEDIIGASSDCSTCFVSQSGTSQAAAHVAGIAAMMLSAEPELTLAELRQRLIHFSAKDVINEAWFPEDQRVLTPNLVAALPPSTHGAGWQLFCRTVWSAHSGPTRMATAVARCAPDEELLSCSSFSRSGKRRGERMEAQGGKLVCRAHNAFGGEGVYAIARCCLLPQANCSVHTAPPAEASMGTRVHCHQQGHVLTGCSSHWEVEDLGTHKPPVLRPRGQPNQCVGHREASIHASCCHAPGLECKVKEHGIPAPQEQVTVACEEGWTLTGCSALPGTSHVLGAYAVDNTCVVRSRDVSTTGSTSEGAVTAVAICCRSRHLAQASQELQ

IC50 [1]: 1.78 µM
IC50 [2]: > 50 µM
B1: Compound 110 (Ac-cRLPWNLQRIGLPC-NH2) (peptide)
peptide: Ac-[dC]RLPWNLQRIGLPC-NH2
modifications: disulfide 1-14
SMILES: CC[C@H](C)[C@@H]1NC(=O)[C@H](CCCNC(=N)N)NC(=O)[C@H](CCC(N)=O)NC(=O)[C@H](CC(C)C)NC(=O)[C@H](CC(N)=O)NC(=O)[C@H](Cc2c[nH]c3ccccc23)NC(=O)[C@@H]2CCCN2C(=O)[C@H](CC(C)C)NC(=O)[C@H](CCCNC(=N)N)NC(=O)[C@H](NC(C)=O)CSSC[C@@H](C(N)=O)NC(=O)[C@@H]2CCCN2C(=O)[C@H](CC(C)C)NC(=O)CNC1=O

IC50 [1]: 2.98 µM
IC50 [2]: 6.9 µM
B2: Compound 89 (WCLWNLKRIGSQCWF-NH2) (peptide)
peptide: WCLWNLKRIGSQCWF-NH2
modifications: disulfide 2-13; N-terminus assumed
SMILES: CC[C@H](C)[C@@H]1NC(=O)[C@H](CCCNC(=N)N)NC(=O)[C@H](CCCCN)NC(=O)[C@H](CC(C)C)NC(=O)[C@H](CC(N)=O)NC(=O)[C@H](Cc2c[nH]c3ccccc23)NC(=O)[C@H](CC(C)C)NC(=O)[C@@H](NC(=O)[C@@H](N)Cc2c[nH]c3ccccc23)CSSC[C@@H](C(=O)N[C@@H](Cc2c[nH]c3ccccc23)C(=O)N[C@@H](Cc2ccccc2)C(N)=O)NC(=O)[C@H](CCC(N)=O)NC(=O)[C@H](CO)NC(=O)CNC1=O

IC50 [1]: 9.53 µM
IC50 [2]: > 50 µM
B3: Compound 87 (Ac-GCLWNLKRIGSQCWF-NH2) (peptide)
peptide: Ac-GCLWNLKRIGSQCWF-NH2
modifications: disulfide 2-13
SMILES: CC[C@H](C)[C@@H]1NC(=O)[C@H](CCCNC(=N)N)NC(=O)[C@H](CCCCN)NC(=O)[C@H](CC(C)C)NC(=O)[C@H](CC(N)=O)NC(=O)[C@H](Cc2c[nH]c3ccccc23)NC(=O)[C@H](CC(C)C)NC(=O)[C@@H](NC(=O)CNC(C)=O)CSSC[C@@H](C(=O)N[C@@H](Cc2c[nH]c3ccccc23)C(=O)N[C@@H](Cc2ccccc2)C(N)=O)NC(=O)[C@H](CCC(N)=O)NC(=O)[C@H](CO)NC(=O)CNC1=O

IC50 [1]: 40.3 µM
IC50 [2]: > 50 µM
B4: Compound 121 (Ac-CRLPWNLQRI-(Ahp)-C-NH2) (peptide)
peptide: Ac-CRLPWNLQRI[Ahp]C-NH2
modifications: disulfide 1-12
SMILES: CC[C@H](C)[C@@H]1NC(=O)[C@H](CCCNC(=N)N)NC(=O)[C@H](CCC(N)=O)NC(=O)[C@H](CC(C)C)NC(=O)[C@H](CC(N)=O)NC(=O)[C@H](Cc2c[nH]c3ccccc23)NC(=O)[C@@H]2CCCN2C(=O)[C@H](CC(C)C)NC(=O)[C@H](CCCNC(=N)N)NC(=O)[C@@H](NC(C)=O)CSSC[C@@H](C(N)=O)NC(=O)CCCCCCNC1=O

IC50 [1]: 11.1 µM
IC50 [2]: > 50 µM
Binder: Ac-SGCRL[Hyp′]WNLQRIGLPC-NH2 (disulfide 3-16) [Compound 37 (Ac-SG-CRL(Hyp)WNLQRIGLPC-NH2)]

IC50 [1]: 28.2 µM
IC50 [2]: > 50 µM
B5: Compound 108 (Ac-CRlPWNLQRIGLPC-NH2) (peptide)
peptide: Ac-CR[dL]PWNLQRIGLPC-NH2
modifications: disulfide 1-14
SMILES: CC[C@H](C)[C@@H]1NC(=O)[C@H](CCCNC(=N)N)NC(=O)[C@H](CCC(N)=O)NC(=O)[C@H](CC(C)C)NC(=O)[C@H](CC(N)=O)NC(=O)[C@H](Cc2c[nH]c3ccccc23)NC(=O)[C@@H]2CCCN2C(=O)[C@@H](CC(C)C)NC(=O)[C@H](CCCNC(=N)N)NC(=O)[C@@H](NC(C)=O)CSSC[C@@H](C(N)=O)NC(=O)[C@@H]2CCCN2C(=O)[C@H](CC(C)C)NC(=O)CNC1=O

IC50 [1]: 6 µM
IC50 [2]: 14.6 µM
B6: Compound 63 (Ac-MCLWNLKRIGSQCEY-NH2) (peptide)
peptide: Ac-MCLWNLKRIGSQCEY-NH2
modifications: disulfide 2-13
SMILES: CC[C@H](C)[C@@H]1NC(=O)[C@H](CCCNC(=N)N)NC(=O)[C@H](CCCCN)NC(=O)[C@H](CC(C)C)NC(=O)[C@H](CC(N)=O)NC(=O)[C@H](Cc2c[nH]c3ccccc23)NC(=O)[C@H](CC(C)C)NC(=O)[C@@H](NC(=O)[C@H](CCSC)NC(C)=O)CSSC[C@@H](C(=O)N[C@@H](CCC(=O)O)C(=O)N[C@@H](Cc2ccc(O)cc2)C(N)=O)NC(=O)[C@H](CCC(N)=O)NC(=O)[C@H](CO)NC(=O)CNC1=O

IC50 [1]: 12.7 µM
IC50 [2]: > 50 µM
B7: Compound 95 (Ac-FCLWNLKRIGSQCEY-NH2) (peptide)
peptide: Ac-FCLWNLKRIGSQCEY-NH2
modifications: disulfide 2-13
SMILES: CC[C@H](C)[C@@H]1NC(=O)[C@H](CCCNC(=N)N)NC(=O)[C@H](CCCCN)NC(=O)[C@H](CC(C)C)NC(=O)[C@H](CC(N)=O)NC(=O)[C@H](Cc2c[nH]c3ccccc23)NC(=O)[C@H](CC(C)C)NC(=O)[C@@H](NC(=O)[C@H](Cc2ccccc2)NC(C)=O)CSSC[C@@H](C(=O)N[C@@H](CCC(=O)O)C(=O)N[C@@H](Cc2ccc(O)cc2)C(N)=O)NC(=O)[C@H](CCC(N)=O)NC(=O)[C@H](CO)NC(=O)CNC1=O

IC50 [1]: 7.1 µM
IC50 [2]: > 50 µM
B8: Compound 65 (Ac-WCLWNLKRIGSQCEY-NH2) (peptide)
peptide: Ac-WCLWNLKRIGSQCEY-NH2
modifications: disulfide 2-13
SMILES: CC[C@H](C)[C@@H]1NC(=O)[C@H](CCCNC(=N)N)NC(=O)[C@H](CCCCN)NC(=O)[C@H](CC(C)C)NC(=O)[C@H](CC(N)=O)NC(=O)[C@H](Cc2c[nH]c3ccccc23)NC(=O)[C@H](CC(C)C)NC(=O)[C@@H](NC(=O)[C@H](Cc2c[nH]c3ccccc23)NC(C)=O)CSSC[C@@H](C(=O)N[C@@H](CCC(=O)O)C(=O)N[C@@H](Cc2ccc(O)cc2)C(N)=O)NC(=O)[C@H](CCC(N)=O)NC(=O)[C@H](CO)NC(=O)CNC1=O

IC50 [1]: 1.67 µM
IC50 [2]: > 50 µM
B9: Compound 109 (Ac-CrLPWNLQRIGLPC-NH2) (peptide)
peptide: Ac-C[dR]LPWNLQRIGLPC-NH2
modifications: disulfide 1-14
SMILES: CC[C@H](C)[C@@H]1NC(=O)[C@H](CCCNC(=N)N)NC(=O)[C@H](CCC(N)=O)NC(=O)[C@H](CC(C)C)NC(=O)[C@H](CC(N)=O)NC(=O)[C@H](Cc2c[nH]c3ccccc23)NC(=O)[C@@H]2CCCN2C(=O)[C@H](CC(C)C)NC(=O)[C@@H](CCCNC(=N)N)NC(=O)[C@@H](NC(C)=O)CSSC[C@@H](C(N)=O)NC(=O)[C@@H]2CCCN2C(=O)[C@H](CC(C)C)NC(=O)CNC1=O

IC50 [1]: 31.6 µM
IC50 [2]: > 50 µM
B10: Compound 116 (Ac-CRLPWNLQRI-(Ahx)-C-NH2) (peptide)
peptide: Ac-CRLPWNLQRI[Ahx]C-NH2
modifications: disulfide 1-12
SMILES: CC[C@H](C)[C@@H]1NC(=O)[C@H](CCCNC(=N)N)NC(=O)[C@H](CCC(N)=O)NC(=O)[C@H](CC(C)C)NC(=O)[C@H](CC(N)=O)NC(=O)[C@H](Cc2c[nH]c3ccccc23)NC(=O)[C@@H]2CCCN2C(=O)[C@H](CC(C)C)NC(=O)[C@H](CCCNC(=N)N)NC(=O)[C@@H](NC(C)=O)CSSC[C@@H](C(N)=O)NC(=O)CCCCCNC1=O

IC50 [1]: 1.53 µM
IC50 [2]: > 50 µM
B11: Compound 79 (Ac-CALPWNLQRIGLPC-NH2) (peptide)
peptide: Ac-CALPWNLQRIGLPC-NH2
modifications: disulfide 1-14
SMILES: CC[C@H](C)[C@@H]1NC(=O)[C@H](CCCNC(=N)N)NC(=O)[C@H](CCC(N)=O)NC(=O)[C@H](CC(C)C)NC(=O)[C@H](CC(N)=O)NC(=O)[C@H](Cc2c[nH]c3ccccc23)NC(=O)[C@@H]2CCCN2C(=O)[C@H](CC(C)C)NC(=O)[C@H](C)NC(=O)[C@@H](NC(C)=O)CSSC[C@@H](C(N)=O)NC(=O)[C@@H]2CCCN2C(=O)[C@H](CC(C)C)NC(=O)CNC1=O

IC50 [1]: 28.8 µM
IC50 [2]: > 50 µM
B12: Compound 81 (Ac-CRLPWNLQRIGGGC-NH2) (peptide)
peptide: Ac-CRLPWNLQRIGGGC-NH2
modifications: disulfide 1-14
SMILES: CC[C@H](C)[C@@H]1NC(=O)[C@H](CCCNC(=N)N)NC(=O)[C@H](CCC(N)=O)NC(=O)[C@H](CC(C)C)NC(=O)[C@H](CC(N)=O)NC(=O)[C@H](Cc2c[nH]c3ccccc23)NC(=O)[C@@H]2CCCN2C(=O)[C@H](CC(C)C)NC(=O)[C@H](CCCNC(=N)N)NC(=O)[C@@H](NC(C)=O)CSSC[C@@H](C(N)=O)NC(=O)CNC(=O)CNC(=O)CNC1=O

IC50 [1]: 0.65 µM
IC50 [2]: > 50 µM
B13: Compound 80 (Ac-CRLPWNLQRIGLGC-NH2) (peptide)
peptide: Ac-CRLPWNLQRIGLGC-NH2
modifications: disulfide 1-14
SMILES: CC[C@H](C)[C@@H]1NC(=O)[C@H](CCCNC(=N)N)NC(=O)[C@H](CCC(N)=O)NC(=O)[C@H](CC(C)C)NC(=O)[C@H](CC(N)=O)NC(=O)[C@H](Cc2c[nH]c3ccccc23)NC(=O)[C@@H]2CCCN2C(=O)[C@H](CC(C)C)NC(=O)[C@H](CCCNC(=N)N)NC(=O)[C@@H](NC(C)=O)CSSC[C@@H](C(N)=O)NC(=O)CNC(=O)[C@H](CC(C)C)NC(=O)CNC1=O

IC50 [1]: 1.3 µM
IC50 [2]: > 50 µM
B14: Compound 99 (Ac-CRLPWNLQRIGLpC-NH2) (peptide)
peptide: Ac-CRLPWNLQRIGL[dP]C-NH2
modifications: disulfide 1-14
SMILES: CC[C@H](C)[C@@H]1NC(=O)[C@H](CCCNC(=N)N)NC(=O)[C@H](CCC(N)=O)NC(=O)[C@H](CC(C)C)NC(=O)[C@H](CC(N)=O)NC(=O)[C@H](Cc2c[nH]c3ccccc23)NC(=O)[C@@H]2CCCN2C(=O)[C@H](CC(C)C)NC(=O)[C@H](CCCNC(=N)N)NC(=O)[C@@H](NC(C)=O)CSSC[C@@H](C(N)=O)NC(=O)[C@H]2CCCN2C(=O)[C@H](CC(C)C)NC(=O)CNC1=O

IC50 [1]: 0.334 µM
IC50 [2]: > 50 µM
B15: Compound 117 (Ac-CRLPWNLQ(homoR)IGLPC-NH2) (peptide)
peptide: Ac-CRLPWNLQ[hArg]IGLPC-NH2
modifications: disulfide 1-14
SMILES: CC[C@H](C)[C@@H]1NC(=O)[C@H](CCCCNC(=N)N)NC(=O)[C@H](CCC(N)=O)NC(=O)[C@H](CC(C)C)NC(=O)[C@H](CC(N)=O)NC(=O)[C@H](Cc2c[nH]c3ccccc23)NC(=O)[C@@H]2CCCN2C(=O)[C@H](CC(C)C)NC(=O)[C@H](CCCNC(=N)N)NC(=O)[C@@H](NC(C)=O)CSSC[C@@H](C(N)=O)NC(=O)[C@@H]2CCCN2C(=O)[C@H](CC(C)C)NC(=O)CNC1=O
